Where “and” joins values, the source holds several entries; their conditions need not be identical. Equal entries are not always repeated.
Key:
LRP6 on HEK293 cells = LRP6 on HEK293 cells (human, UniProt O75581 20-1613); experiment: cell-based or functional assay
[1] = molecular target: T1, LRP6 (human; form used in the assay not stated) (human, UniProt O75581 20-1253, limits assumed); experiment: SPR (BIAcore), full length IgG; LRP6 construct not stated; affinity-matured clone, full length human IgG
T1 construct: probably an E3-E4 fragment for SPR
T1 sequence: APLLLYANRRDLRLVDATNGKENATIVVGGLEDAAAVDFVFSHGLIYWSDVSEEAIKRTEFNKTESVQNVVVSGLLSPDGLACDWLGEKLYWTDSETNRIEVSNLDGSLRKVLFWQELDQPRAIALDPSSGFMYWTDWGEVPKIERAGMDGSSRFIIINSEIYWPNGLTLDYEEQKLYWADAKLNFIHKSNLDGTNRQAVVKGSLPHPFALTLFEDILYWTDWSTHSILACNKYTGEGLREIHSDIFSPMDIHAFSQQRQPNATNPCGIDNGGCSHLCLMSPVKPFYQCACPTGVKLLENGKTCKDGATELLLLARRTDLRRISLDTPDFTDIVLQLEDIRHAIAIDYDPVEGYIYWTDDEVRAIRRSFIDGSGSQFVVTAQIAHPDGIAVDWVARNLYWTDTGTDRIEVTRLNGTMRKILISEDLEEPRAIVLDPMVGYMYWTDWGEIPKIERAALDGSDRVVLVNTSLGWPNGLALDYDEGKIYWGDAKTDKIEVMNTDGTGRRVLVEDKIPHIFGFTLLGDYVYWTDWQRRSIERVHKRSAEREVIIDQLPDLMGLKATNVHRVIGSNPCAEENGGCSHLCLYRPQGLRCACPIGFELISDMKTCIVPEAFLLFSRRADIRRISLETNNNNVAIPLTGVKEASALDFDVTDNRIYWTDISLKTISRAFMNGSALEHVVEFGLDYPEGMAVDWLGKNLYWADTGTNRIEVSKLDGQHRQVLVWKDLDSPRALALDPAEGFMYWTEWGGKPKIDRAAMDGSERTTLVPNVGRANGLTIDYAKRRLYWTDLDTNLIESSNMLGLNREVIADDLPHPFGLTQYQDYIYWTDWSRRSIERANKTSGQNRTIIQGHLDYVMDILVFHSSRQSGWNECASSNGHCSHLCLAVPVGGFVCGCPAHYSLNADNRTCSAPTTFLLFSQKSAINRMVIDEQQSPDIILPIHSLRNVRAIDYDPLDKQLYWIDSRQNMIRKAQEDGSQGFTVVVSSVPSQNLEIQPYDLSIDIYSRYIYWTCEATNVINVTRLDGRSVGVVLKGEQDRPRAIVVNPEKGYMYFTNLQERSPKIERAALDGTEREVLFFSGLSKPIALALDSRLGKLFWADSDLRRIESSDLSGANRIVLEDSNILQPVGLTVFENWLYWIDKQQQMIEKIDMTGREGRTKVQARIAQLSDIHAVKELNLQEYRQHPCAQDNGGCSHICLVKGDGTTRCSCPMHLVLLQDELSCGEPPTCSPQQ

LRP6.E1-E2-Fc = LRP6.E1-E2-Fc (human); experiment: ELISA
LRP6.E1-E2-Fc (human), sequence (chain, as listed by the source limits assumed): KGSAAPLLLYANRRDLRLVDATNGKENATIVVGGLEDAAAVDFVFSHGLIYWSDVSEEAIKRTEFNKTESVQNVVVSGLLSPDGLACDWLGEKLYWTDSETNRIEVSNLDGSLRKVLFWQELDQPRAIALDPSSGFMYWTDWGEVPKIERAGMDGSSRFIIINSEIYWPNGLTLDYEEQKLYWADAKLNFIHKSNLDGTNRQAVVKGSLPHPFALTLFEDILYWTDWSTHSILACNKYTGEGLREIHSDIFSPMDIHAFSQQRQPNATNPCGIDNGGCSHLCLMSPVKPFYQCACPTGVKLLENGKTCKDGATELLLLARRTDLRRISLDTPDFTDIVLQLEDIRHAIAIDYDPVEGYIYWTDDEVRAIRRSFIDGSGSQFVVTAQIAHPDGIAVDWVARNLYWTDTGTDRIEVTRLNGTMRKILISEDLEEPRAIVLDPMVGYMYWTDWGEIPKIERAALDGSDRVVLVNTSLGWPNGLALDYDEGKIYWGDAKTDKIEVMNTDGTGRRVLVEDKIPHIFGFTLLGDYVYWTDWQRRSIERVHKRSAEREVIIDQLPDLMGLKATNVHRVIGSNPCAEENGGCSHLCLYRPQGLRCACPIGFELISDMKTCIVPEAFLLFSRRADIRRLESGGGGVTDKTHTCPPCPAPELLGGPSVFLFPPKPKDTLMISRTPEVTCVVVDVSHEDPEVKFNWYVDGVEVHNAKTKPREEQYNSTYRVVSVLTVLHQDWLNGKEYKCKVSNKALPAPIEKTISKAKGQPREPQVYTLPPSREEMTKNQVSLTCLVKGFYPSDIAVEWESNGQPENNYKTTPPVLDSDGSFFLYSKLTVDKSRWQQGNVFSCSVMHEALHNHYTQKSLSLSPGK

LRP6.E3-E4-Fc = molecular target: T2, LRP6.E3-E4-Fc (human); experiment: ELISA
T2 construct: also called LRP6.E3-4-Fc
T2 sequence (chain, as listed by the source limits assumed): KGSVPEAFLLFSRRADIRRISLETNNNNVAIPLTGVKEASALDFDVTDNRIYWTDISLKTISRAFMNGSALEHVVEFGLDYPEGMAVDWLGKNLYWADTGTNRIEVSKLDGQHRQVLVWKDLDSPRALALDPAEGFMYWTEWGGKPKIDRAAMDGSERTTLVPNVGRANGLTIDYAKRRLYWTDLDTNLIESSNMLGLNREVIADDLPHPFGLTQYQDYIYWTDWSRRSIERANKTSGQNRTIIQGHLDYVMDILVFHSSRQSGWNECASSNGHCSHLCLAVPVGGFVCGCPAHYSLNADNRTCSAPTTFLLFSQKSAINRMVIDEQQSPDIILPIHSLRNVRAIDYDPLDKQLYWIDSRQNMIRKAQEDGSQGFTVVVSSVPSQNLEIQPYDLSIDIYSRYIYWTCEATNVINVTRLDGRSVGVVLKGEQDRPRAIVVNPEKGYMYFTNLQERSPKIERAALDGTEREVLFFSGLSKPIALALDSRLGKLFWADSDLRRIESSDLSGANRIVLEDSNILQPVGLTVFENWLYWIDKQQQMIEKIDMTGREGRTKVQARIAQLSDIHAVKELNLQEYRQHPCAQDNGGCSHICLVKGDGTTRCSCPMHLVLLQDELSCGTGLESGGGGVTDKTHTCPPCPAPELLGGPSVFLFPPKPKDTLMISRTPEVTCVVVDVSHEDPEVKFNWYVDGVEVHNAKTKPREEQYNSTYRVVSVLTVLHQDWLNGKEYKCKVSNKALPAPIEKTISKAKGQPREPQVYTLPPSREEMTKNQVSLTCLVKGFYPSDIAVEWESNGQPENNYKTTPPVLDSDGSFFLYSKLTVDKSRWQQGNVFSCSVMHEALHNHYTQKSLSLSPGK

[2] = molecular target: T3, His-tagged LRP6.E3-E4 protein (human, UniProt O75581 629-1244); experiment: phage competition ELISA, phage-displayed clone
T3 construct: also called LRP6.E3-4-His; printed once as LRP3.E3-E4; not shown: His tag
T3 sequence: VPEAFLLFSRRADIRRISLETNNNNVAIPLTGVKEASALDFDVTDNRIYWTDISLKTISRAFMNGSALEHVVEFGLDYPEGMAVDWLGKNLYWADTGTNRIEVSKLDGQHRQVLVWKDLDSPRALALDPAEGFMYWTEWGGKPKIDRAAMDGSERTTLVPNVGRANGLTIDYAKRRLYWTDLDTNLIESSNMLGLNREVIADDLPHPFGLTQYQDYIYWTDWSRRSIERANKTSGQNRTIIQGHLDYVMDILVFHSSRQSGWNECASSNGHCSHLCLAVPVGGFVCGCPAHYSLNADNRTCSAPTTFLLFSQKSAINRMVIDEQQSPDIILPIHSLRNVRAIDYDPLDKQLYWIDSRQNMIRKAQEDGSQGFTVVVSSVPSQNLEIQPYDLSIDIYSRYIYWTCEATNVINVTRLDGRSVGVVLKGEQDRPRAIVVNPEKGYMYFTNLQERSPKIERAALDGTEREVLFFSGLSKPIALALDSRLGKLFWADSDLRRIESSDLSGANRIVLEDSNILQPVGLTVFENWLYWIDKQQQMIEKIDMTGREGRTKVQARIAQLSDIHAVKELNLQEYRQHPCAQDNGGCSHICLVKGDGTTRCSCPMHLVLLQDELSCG

[3] = molecular target: T4, LRP6.E3-E4 fragment (biotinylated, His-tagged) (Homo sapiens (Human), UniProt O75581 629-1244, biotinylated (AviTag system)); experiment: biolayer interferometry, immobilized LRP6 E3-E4 fragment; Wnt3a at 200 nM; association then dissociation phase
T4 construct: BLI antigen from baculovirus-infected insect cells; also called LRP6.E3-E4 protein; not shown: His tag and AviTag
T4 sequence: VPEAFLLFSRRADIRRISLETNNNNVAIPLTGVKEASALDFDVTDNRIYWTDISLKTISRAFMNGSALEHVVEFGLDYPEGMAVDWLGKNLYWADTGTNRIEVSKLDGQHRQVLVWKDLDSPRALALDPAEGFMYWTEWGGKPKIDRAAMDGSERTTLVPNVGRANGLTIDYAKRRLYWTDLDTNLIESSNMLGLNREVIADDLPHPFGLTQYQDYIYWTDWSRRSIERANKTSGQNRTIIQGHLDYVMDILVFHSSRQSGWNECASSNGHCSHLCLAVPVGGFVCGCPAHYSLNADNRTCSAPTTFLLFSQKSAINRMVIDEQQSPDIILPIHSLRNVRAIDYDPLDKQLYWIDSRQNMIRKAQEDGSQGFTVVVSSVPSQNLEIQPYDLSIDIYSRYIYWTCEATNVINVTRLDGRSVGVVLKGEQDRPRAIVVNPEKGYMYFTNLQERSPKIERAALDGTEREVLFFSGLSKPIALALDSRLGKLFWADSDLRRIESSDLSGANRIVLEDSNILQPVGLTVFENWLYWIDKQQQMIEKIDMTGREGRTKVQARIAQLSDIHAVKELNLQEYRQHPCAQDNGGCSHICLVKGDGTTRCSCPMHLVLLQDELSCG
Protocol: Biolayer interferometry was performed as previously described (Bourhis et al., 2010). Briefly, biotinylated, His-tagged LRP6 proteins were purified from baculovirus-infected insect cells using the AviTag system (GeneCopoeia). Binding kinetics were measured on the Octet RED System (ForteBio) using Streptavidin High Binding FA Biosensors loaded with 20 μg/ml LRP6 protein.
In these assays, antibody binding to LRP6 protein was allowed to reach equilibrium, and the subsequent wavelength shift in the interference pattern is shown for association and dissociation phases of Wnt protein binding.

B1: YW211.31.57 antibody (antibody, human IgG1, kappa, V domains shown)
VH: EVQLVESGGGLVQPGGSLRLSCAASGFTFTSYYISWVRQAPGKGLEWVAEISPYSGSTYYADSVKGRFTISADTSKNTAYLQMNSLRAEDTAVYYCALRARPPIRLYPRGSVMDYWGQGTLVTVSS
VL: DIQMTQSPSSLSASVGDRVTITCRASQDVSTAVAWYQQKPGKAPKLLIYSASFLYSGVPSRFSGSGSGTDFTLTISSLQPEDFATYYCQQSYTLPTTFGQGTKVEIKR
With B1 the “IC50, inhibition of signaling in Wnt3a-stimulated HEK293 cells” value (LRP6 on HEK293 cells) was ~0.1 µg/ml and ~0.6 nM and the Kd [1] was 0.27 nM.

B2: YW211.03 antibody (antibody, V domains shown)
VH: EVQLVESGGGLVQPGGSLRLSCAASGFTFTGYWIHWVRQAPGKGLEWVGTISPAGGSTDYADSVKGRFTISADTSKNTAYLQMNSLRAEDTAVYYCARTDWRFHHAGEYAMDYWGQGTLVTVSS
VL: DIQMTQSPSSLSASVGDRVTITCRASQDVSTAVAWYQQKPGKAPKLLIYSASFLYSGVPSRFSGSGSGTDFTLTISSLQPEDFATYYCQQSYTTPPTFGQGTKVEIKR
B2: no binding (LRP6.E1-E2-Fc); binds (LRP6.E3-E4-Fc).

B3: YW211.31.11 antibody (antibody, V domains shown)
VH: EVQLVESGGGLVQPGGSLRLSCAASGFTFGFYYLSWVRQAPGKGLEWVAEISPYSGSTYYADSVKGRFTISADTSKNTAYLQMNSLRAEDTAVYYCALRARPPIRLHPRGSVMDYWGQGTLVTVSS
VL: DIQMTQSPSSLSASVGDRVTITCRASQDVSTAVAWYQQKPGKAPKLLIYSASFLYSGVPSRFSGSGSGTDFTLTISSLQPEDFATYYCQQSYAIPTTFGQGTKVEIKR
B3: binds [2].

B4: YW211.12 antibody (antibody, V domains shown)
VH: EVQLVESGGGLVQPGGSLRLSCAASGFTFTGNDIHWVRQAPGKGLEWVGRIYPYGGYTDYADSVKGRFTISADTSKNTAYLQMNSLRAEDTAVYYCAKEVTYHLFDYWGQGTLVTVSS
VL: DIQMTQSPSSLSASVGDRVTITCRASQDVSTAVAWYQQKPGKAPKLLIYSASFLYSGVPSRFSGSGSGTDFTLTISSLQPEDFATYYCQQSYTTPPTFGQGTKVEIKR
B4: no binding (LRP6.E1-E2-Fc); binds (LRP6.E3-E4-Fc).

B5: YW211.08 antibody (antibody, V domains shown)
VH: EVQLVESGGGLVQPGGSLRLSCAASGFTFTDYWIHWVRQAPGKGLEWVAGISPDGGSTYYADSVKGRFTISADTSKNTAYLQMNSLRAEDTAVYYCARWSYISRYFSSVMDYWGQGTLVTVSS
VL: DIQMTQSPSSLSASVGDRVTITCRASQDVSTAVAWYQQKPGKAPKLLIYSASFLYSGVPSRFSGSGSGTDFTLTISSLQPEDFATYYCQQSYTTPPTFGQGTKVEIKR
B5: no binding (LRP6.E1-E2-Fc); binds (LRP6.E3-E4-Fc).

B6: YW211.33 antibody (antibody, V domains shown)
VH: EVQLVESGGGLVQPGGSLRLSCAASGFTFSGSSISWVRQAPGKGLEWVGVISPSSGATYYADSVKGRFTISADTSKNTAYLQMNSLRAEDTAVYYCARWPAGAFLGYYGMDYWGQGTLVTVSS
VL: DIQMTQSPSSLSASVGDRVTITCRASQDVSTAVAWYQQKPGKAPKLLIYSASFLYSGVPSRFSGSGSGTDFTLTISSLQPEDFATYYCQQSYTTPPTFGQGTKVEIKR
B6: no binding (LRP6.E1-E2-Fc); binds (LRP6.E3-E4-Fc).

B7: YW211.11 antibody (antibody, V domains shown)
VH: EVQLVESGGGLVQPGGSLRLSCAASGFTFTNYDIHWVRQAPGKGLEWVASIYPAGGDTDYADSVKGRFTISADTSKNTAYLQMNSLRAEDTAVYYCARSPGWALRGAMDYWGQGTLVTVSS
VL: DIQMTQSPSSLSASVGDRVTITCRASQDVSTAVAWYQQKPGKAPKLLIYSASFLYSGVPSRFSGSGSGTDFTLTISSLQPEDFATYYCQQSYTTPPTFGQGTKVEIKR
B7: no binding (LRP6.E1-E2-Fc); binds (LRP6.E3-E4-Fc).

B8: YW211.31.62 antibody (antibody, human IgG1, kappa, V domains shown)
VH: EVQLVESGGGLVQPGGSLRLSCAASGFTFGYYYISWVRQAPGKGLEWVAEISPYSGSTYYADSVKGRFTISADTSKNTAYLQMNSLRAEDTAVYYCALRARPPIRLHPRGSVMDYWGQGTLVTVSS
VL: DIQMTQSPSSLSASVGDRVTITCRASQDVSTAVAWYQQKPGKAPKLLIYSASFLYSGVPSRFSGSGSGTDFTLTISSLQPEDFATYYCQQSYTTPPTFGQGTKVEIKR
B8 was tested, and the “IC50, inhibition of signaling in Wnt3a-stimulated HEK293 cells” value (LRP6 on HEK293 cells) was ~0.1 µg/ml and ~0.6 nM and the Kd [1] was 0.17 nM.

B9: YW211.31.35 antibody (antibody, V domains shown)
VH: EVQLVESGGGLVQPGGSLRLSCAASGFTFGFYYISWVRQAPGKGLEWVAEISPYSGSTYYADSVKGRFTISADTSKNTAYLQMNSLRAEDTAVYYCALRARPPIRLHPRGSVMDYWGQGTLVTVSS
VL: DIQMTQSPSSLSASVGDRVTITCRASQDVSTAVAWYQQKPGKAPKLLIYSASFLYSGVPSRFSGSGSGTDFTLTISSLQPEDFATYYCQQSYTTPPTFGQGTKVEIKR
B9: binds [2].

B10: Wnt3a (ligand, human, UniProt P56704 19-352, looked up)
chain: SYPIWWSLAVGPQYSSLGSQPILCASIPGLVPKQLRFCRNYVEIMPSVAEGIKIGIQECQHQFRGRRWNCTTVHDSLAIFGPVLDKATRESAFVHAIASAGVAFAVTRSCAEGTAAICGCSSRHQGSPGKGWKWGGCSEDIEFGGMVSREFADARENRPDARSAMNRHNNEAGRQAIASHMHLKCKCHGLSGSCEVKTCWWSQPDFRAIGDFLKDKYDSASEMVVEKHRESRGWVETLRPRYTYFKVPTERDLVYYEASPNFCEPNPETGSFGTRDRTCNVSSHGIDGCDLLCCGRGHNARAERRREKCRCVFHWCCYVSCQECTRVYDVHTCK
notes: also called purified human Wnt3a
B10: binds [3].
